# From patent US20230407373A1 (priority 2020, published 2023)
# B1: RBM14: host protein, UniProt Q96PK6 (protein, UniProt Q96PK6 1-669, looked up)
# RNA-binding protein 14: MKIFVGNVDGADTTPEELAALFAPYGTVMSCAVMKQFAFVHMRENAGALRAIEALHGHELRPGRALVVEMSRPRPLNTWKIFVGNVSAACTSQELRSLFERRGRVIECDVVKDYAFVHMEKEADAKAAIAQLNGKEVKGKRINVELSTKGQKKGPGLAVQSGDKTKKPGAGDTAFPGTGGFSATFDYQQAFGNSTGGFDGQARQPTPPFFGRDRSPLRRSPPRASYVAPLTAQPATYRAQPSVSLGAAYRAQPSASLGVGYRTQPMTAQAASYRAQPSVSLGAPYRGQLASPSSQSAAASSLGPYGGAQPSASALSSYGGQAAAASSLNSYGAQGSSLASYGNQPSSYGAQAASSYGVRAAASSYNTQGAASSLGSYGAQAASYGAQSAASSLAYGAQAASYNAQPSASYNAQSAPYAAQQAASYSSQPAAYVAQPATAAAYASQPAAYAAQATTPMAGSYGAQPVVQTQLNSYGAQASMGLSGSYGAQSAAAATGSYGAAAAYGAQPSATLAAPYRTQSSASLAASYAAQQHPQAAASYRGQPGNAYDGAGQPSAAYLSMSQGAVANANSTPPPYERTRLSPPRASYDDPYKKAVAMSKRYGSDRRLAELSDYRRLSESQLSFRRSPTKSSLDYRRLPDAHSDYARYSGSYNDYLRAAQMHSGYQRRM
# B2: CNBP: host protein, UniProt P62633 (protein, UniProt P62633 2-177, looked up)
# CCHC-type zinc finger nucleic …: SSNECFKCGRSGHWARECPTGGGRGRGMRSRGRGGFTSDRGFQFVSSSLPDICYRCGESGHLAKDCDLQEDACYNCGRGGHIAKDCKEPKREREQCCYNCGKPGHLARDCDHADEQKCYSCGEFGHIQKDCTKVKCYRCGETGHVAINCSKTSEVNCYRCGESGHLARECTIEATA
# B3: EWSR1: host protein, UniProt Q01644 (protein, UniProt Q01844 1-656, looked up)
# RNA-binding protein EWS: MASTDYSTYSQAAAQQGYSAYTAQPTQGYAQTTQAYGQQSYGTYGQPTDVSYTQAQTTATYGQTAYATSYGQPPTGYTTPTAPQAYSQPVQGYGTGAYDTTTATVTTTQASYAAQSAYGTQPAYPAYGQQPAATAPTRPQDGNKPTETSQPQSSTGGYNQPSLGYGQSNYSYPQVPGSYPMQPVTAPPSYPPTSYSSTQPTSYDQSSYSQQNTYGQPSSYGQQSSYGQQSSYGQQPPTSYPPQTGSYSQAPSQYSQQSSSYGQQSSFRQDHPSSMGVYGQESGGFSGPGENRSMSGPDNRGRGRGGFDRGGMSRGGRGGGRGGMGSAGERGGFNKPGGPMDEGPDLDLGPPVDPDEDSDNSAIYVQGLNDSVTLDDLADFFKQCGVVKMNKRTGQPMIHIYLDKETGKPKGDATVSYEDPPTAKAAVEWFDGKDFQGSKLKVSLARKKPPMNSMRGGLPPREGRGMPPPLRGGPGGPGGPGGPMGRMGGRGGDRGGFPPRGPRGSRGNPSGGGNVQHRAGDWQCPNPGCGNQNFAWRTECNQCKAPKPEGFLPPPFPPPGGDRGRGGPGGMRGGRGGLMDRGGPGGMFRGGRGGDRGGFRGGRGMDRGGFGGGRRGGPGGPPGPLMEQMGGRRGGRGGPGKMDKGEHRQERRDRPY
# B4: TIAL1: host protein, UniProt Q01085 (protein, UniProt Q01085 1-375, looked up)
# Nucleolysin TIAR: MMEDDGQPRTLYVGNLSRDVTEVLILQLFSQIGPCKSCKMITEHTSNDPYCFVEFYEHRDAAAALAAMNGRKILGKEVKVNWATTPSSQKKDTSNHFHVFVGDLSPEITTEDIKSAFAPFGKISDARVVKDMATGKSKGYGFVSFYNKLDAENAIVHMGGQWLGGRQIRTNWATRKPPAPKSTQENNTKQLRFEDVVNQSSPKNCTVYCGGIASGLTDQLMRQTFSPFGQIMEIRVFPEKGYSFVRFSTHESAAHAIVSVNGTTIEGHVVKCYWGKESPDMTKNFQQVDYSQWGQWSQVYGNPQQYGQYMANGWQVPPYGVYGQPWNQQGFGVDQSPSAAWMGGFGAQPPQGQAPPPVIPPPNQAGYGMASYQTQ
# Test system: SARS-CoV-2 gRNA and sgRNAs
# Type: binding
# Details: Probe II capture; […]; LC-MS/MS LFQ
row,Molecule,target (unweighted spectral count in RNP capture)
1,B1,10
2,B2,44
3,B3,7
4,B4,25

# Same assay, conditions: no-probe control pull-down, used as background for Probe II
row,Molecule,background (unweighted spectral count in control)
1,B1,1
2,B2,1
3,B3,1
4,B4,1

# Test system: SARS-CoV-2 gRNA
# Type: binding
# Details: […]; LC-MS/MS; Probe I sample (first 199 lines of Table 2)
row,Molecule,target (unweighted spectral count of the protein in the RNP capture)
1,B1,9
2,B2,74
3,B3,9
4,B4,10

# Test system: HCoV-OC43 gRNA and sgRNA
# Type: binding
# Details: 36 hpi; type n_36_v; tested against no-probe control; FDR<10%
row,Molecule,"target (unweighted spectral count, OC43 Probe II capture)"
1,B1,14
2,B2,14
3,B3,9
4,B4,9

# Same assay, conditions: OC43 Probe II, 12 hpi (type n_12_v), infected cells; tested against no-probe control
row,Molecule,target (unweighted spectral count)
1,B1,5
2,B2,5

# Same assay, conditions: OC43 Probe II, 24 hpi (type n_24_v), infected cells; tested against no-probe control
row,Molecule,target (unweighted spectral count)
1,B2,12
2,B3,6
3,B4,7

# Same assay, conditions: type n_48_v; 48 hpi; OC43 Probe II capture on infected cells
row,Molecule,"target (unweighted spectral count, OC43 Probe II)"
1,B1,17
2,B2,19
3,B3,10
4,B4,11

# Same assay, conditions: type n_48_v; 48 hpi; no-probe control on infected cells
row,Molecule,"background (unweighted spectral count, no-probe control)"
1,B1,2
2,B2,2
3,B3,1
4,B4,1

# Same assay, conditions: type s_36_m; HCoV-OC43-infected HCT-8 cells, 36 hpi, Probe II
row,Molecule,target (spectral count)
1,B3,9
2,B4,9

# Same assay, conditions: type s_36_m; uninfected-probe control, 36 hpi, Probe II
row,Molecule,background (spectral count)
1,B3,1
2,B4,1

# Test system: gRNA of HCoV-OC43
# Type: binding
# Details: type g_36_m; HCoV-OC43-infected HCT-8 cells, 36 hpi, Probe I
row,Molecule,target (spectral count)
1,B1,20
2,B2,15

# Same assay, conditions: type g_36_m; uninfected-probe control, 36 hpi, Probe I
row,Molecule,background (spectral count)
1,B1,2
2,B2,2

# Same assay, conditions: type n_48_v: 48 hours post-infection, infected cells, OC43 Probe I; unweighted spectral count
row,Molecule,"target (spectral count, OC43 Probe I RNP capture)"
1,B1,19
2,B2,22
3,B3,8
4,B4,11

# Same assay, conditions: type n_48_v: 48 hours post-infection, no-probe control on infected cells
row,Molecule,"background (spectral count, no-probe control)"
1,B1,2
2,B2,2
3,B3,1
4,B4,1
